From the nanobody polyreactivity screen of Harvey et al. (2022)

Test: yeast display, Sf9 membrane polyspecificity reagent, FACS + sequencing; frameworks hold sequencing errors
Outline: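 A nanobody's polyreactivity label depends on the gate it was sorted from. Yeast display cells were stained with 10% biotinylated, detergent-solubilized Sf9 membrane reagent for 1 hour at 4 °C, enriched on streptavidin microbeads and sorted by FACS. The low and high (top ~1%) gates were set on anti-HA fluorescence for expression and streptavidin fluorescence for reagent binding.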
With “QVQLEESGGGLVQAGGSLRLSCADSGSTFYTNAMGWYRQAPGKERELVAAISASVGSTYYADSVKGRFTISRDNAKNTVYLQMNILKPEDTAVYYCAAYVWDSRRYDYWGQGTQVTVSS” the “polyreactivity (PSR sort gate)” value was “low polyreactivity”.
For “QVQLVESGGGLVQAGGSLRLICAASGLIFPSYAMGWYRQAPGKERELVAGINSGGSTNYADSVKGRFTISRDNAKNTVYLQMNSLKPEDTAVYYCAKDNNYYWYVSPRDYWGQGTQVTVSS”, the “polyreactivity (PSR sort gate)” value was “low polyreactivity”.
In the case of “QVQLVESGGGLVQAGGSLRLSCAASGRTIYYNGMGWDRQAPGKERELVAAITSGGTTSYADSVKGRFTISRDNAKNTVYLQMNSLKPEDTAVYYCARVTDGVVYEYDYWGQGTQVTVSS”, the “polyreactivity (PSR sort gate)” value is reported as “low polyreactivity”.
With “QVQLVESGGGIVQAGGSLRVSCAASGTMGWYRQAPGKERELVAAISQSGGSTYYADSVKGRFTISRDNAKNTVYLQMNSLKPEDTAVYYCAVDPGYGHPRRDYWGQGTQVTVSS” the “polyreactivity (PSR sort gate)” value was “low polyreactivity”.
With “QVQLVDSGGVLFQAGVSLLISCYASGITFYSYALGRNRRAPGKDWELVASITKSSGRTYYADSVKGRFTISRDNAKTTVSLQMNSVKPEDTAVYYCKAYYVALPPNMDYWGQGTQVTVSS” the “polyreactivity (PSR sort gate)” value was “high polyreactivity”.
In the case of “QVQLVESGGGLVQAGGSLRLSCAASGYTFYRYAMGWYRQAPGKERELVATISRGGSTDYADSVKGRFTISRDNAKNTVYLQMNSLKPEDTAVYYCAARAFSRLTTFYYWGQGTQVTVSS”, the “polyreactivity (PSR sort gate)” value is reported as “high polyreactivity”.
With “QVQLVESGGGLVQAGGSLRLSCAASGFTFYRNAMGWYRQAPGKEREMVAAISWSGDSTYYADSVKGRFTISRDNAKNTVYLQMNSLNPEDTAVYYCAKERYFYYPWVTTYTSNYWGQGTQVTVSS” the “polyreactivity (PSR sort gate)” value was “low polyreactivity”.
For “QVQLVESGGGLVQAGGSLRLSCAASGFTFWDYAMGWYRQAPGKERELVAAISSRGTRTYYADSVKGRFTISRDNAKNTVYLQMNSLKPEDTAVYYCATAIPDPDYIHNYWGQGTQVTVSS”, the “polyreactivity (PSR sort gate)” value was “high polyreactivity”.
With “QVQLVESGGGLVQAGGSLRLSCAASGYTFSDNAMGWSRQAPGKERDLVAAITSGVSKYFADSVKGRFTISRDNAKNTVYLQMNSLKPEDTADYYFAKDVAVYADLYQGAPYGYWGQGTQVTVSS” the “polyreactivity (PSR sort gate)” value was “low polyreactivity”.
With “QVQLVESGGGLVQAGGSLRLSCAASGRTFRWNGMGWYRQAPGKERELVAVINRGGSTTYADSVKGRFTISRDNAKNTVYLQMNSLKPEDTAVYYCAKDHYYAGTWRYGYWGQGTQVTVSS” the “polyreactivity (PSR sort gate)” value was “high polyreactivity”.
With “QVQLVESGGSLVQAGGSLRLICAASGFIFWTYAMGWYRQAPGKERELVARISWSGGSTYYADSVKGRFTNSRDNAKNTVYLQMNSLKPEDTAVYYCAALTESSSYGYWGQGTQVTVSS” the “polyreactivity (PSR sort gate)” value was “low polyreactivity”.
For “QVQLVESGGGLVQAGGSLRLSCAASGSIFDVNAMGWYRQAPGKERELVAAITSSGGSTYYADSVKGRFTISRDNAKNTVYLQMNSLKPEDTAVYYCAAYSLYTMYWGQGTQVTVSS”, the “polyreactivity (PSR sort gate)” value was “low polyreactivity”.
In the case of “QVQLVESGGGLVQAGGSLRLSCAASGSTFVRNAMGWYRQAPGKERELVAAISRSGGRTYYADSVKGRFTISRDNAKNTVYLQMNSLKPEDTAVYYCAKKRSKPISFDYWGQGTQVTVSS”, the “polyreactivity (PSR sort gate)” value is reported as “high polyreactivity”.
With “QVQLVESGGGLVQAGGRLRLSCAPSGLIFQHNSMGWYRKATGKERELVASITWDGGSTYYADSVKGRFTISRDNAKNTVYLQMNSLKPEDTAVYYCAARFDSFWVEYDYWGQGTQVTVSS” the “polyreactivity (PSR sort gate)” value was “low polyreactivity”.
In the case of “QVQLVESGGGLVQAGGSLRLSSASSGFIFRGNAMVWSRQAPGKERELVAAISWSGGNTYYADSVKGRFTISRDYAKNTVYLQMNSMIPEDTAVYYCNGVKAYYRWFLPRYQYNFWGQGTQVTVSS”, the “polyreactivity (PSR sort gate)” value is reported as “high polyreactivity”.
With “QVQLVESGGGLVQAGGSLRLSCAASGRTINPYGMGWYRPAPGKERELVADINSGGITNYADSVKGRFTISRDNAKNTVYLQMNSLKPEDTAVYYCNADGFIQPDDWRNFAGDYWGQGTQVTVSS” the “polyreactivity (PSR sort gate)” value was “low polyreactivity”.
